Reference: PMC3948627

Molecular target: Aha1 I64X (pAzpa at position 64) with C-terminal V5/His6-tag (S. cerevisiae) (UniProt Q12449)
Test: cross-linking; in vivo photo-cross-linking (pAzpa, UV 365 nm), crosslink product immunoprecipitated by anti-V5, separated by 6% SDS-PAGE, band digested and identified by MALDI-TOF/MS

Aha1 I64X (pAzpa at position 64) with C-terminal V5/His6-tag (from UniProt Q12449 1-350)
stoichiometry N: 2
